Results: patent US20200181277A1

Assays:
[1] = target: purified human C1q (human) (UniProt P02745); assay: cell-based or functional assay
[2] = target: human CD40 (human) (UniProt P25942); assay: cell-based or functional assay
Chain of human CD40 (human) (P25942 21-277): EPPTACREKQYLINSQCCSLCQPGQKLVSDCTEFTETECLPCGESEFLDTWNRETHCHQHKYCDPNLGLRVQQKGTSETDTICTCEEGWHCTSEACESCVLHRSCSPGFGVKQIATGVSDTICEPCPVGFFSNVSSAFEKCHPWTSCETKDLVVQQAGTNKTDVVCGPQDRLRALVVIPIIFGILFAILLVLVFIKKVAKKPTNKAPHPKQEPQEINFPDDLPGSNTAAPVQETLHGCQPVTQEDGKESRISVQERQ

CD40 response, luciferase reporter cells, EC50 [2] [µg/mL] | Substance | C1q EC90 (µg/mL), viability assay on WIL2-S SF cells [1] [µg/mL]
– | IgG1-b12 (antibody) | > 2.5
0.113 | purified, recombinant CD40 ligand (R&D systems, Cat No. 6420-CL-025/CF) (from UniProt P29965 108-261) | –
